Data from US20190125929A1.

How the values were obtained:
[1] = target: decellularized extracellular matrix derived from wild-type (WT) mouse dermal fibroblasts (mouse); experiment: AFM adhesion force, vWF-conjugated 2 µm bead on decellularized ECM (n=5)
[2] = target: decellularized extracellular matrix derived from TSP2 KO mouse dermal fibroblasts (mouse); experiment: as above

Recombinant von Willebrand Factor (vWF) (Millipore), conjugated via EDC/NHS chemistry to a 2 µm carboxylated polystyrene bead on an AFM cantilever
adhesion force [1]: 53.8 pN | adhesion force [2]: 16.5 pN
